This note sets out measurements from patent publication US20260258115A1 (MAPP BIOPHARMACEUTICAL, published 2026).

For this assay, the target named is RSV F on RSV-A2 virus (Respiratory syncytial virus (RSV-A2)). The assay can be described thus: cell-based or functional assay.

B1: ADI-41315 (antibody, V domains shown)
VH: EVQLLESGPGLVKPSETLSLTCAVSGGSISNYYWSWIRQPPGKGLEWIAYISYSGTTNYNPSLESRVTISVDTSKNQFSLKLNSVTAADTAVYYCARHEFLVLPDVWGQGTLVTVSS
VL: ETTLTQSPGTLSLSPGERATLSCRASQSVSSTFLAWYQQKPGQAPRLLIYAASSRATGIPDRFSGSGSGTDFTLIISRLEPEDFAVYYCQQYRSSPFSFGPGTKVEIK
Consider B1, for which the “Neutralization IC50 (RSV subtype A)” value was above 25 µg/mL.

B2: ADI-41318 (antibody, V domains shown)
VH: EVQLLESGAEVKKPGSSVRVSCKAFGGTFSSYAFSWVRQAPGQGLEWMGGITPMFGTENYAPNFQGRVTITADKLTTTVYMELSRLRSEDSAVYYCAREGGRLGTTMGAFDMWGQGTMVTVSS
VL: DIRLTQSPSSLSASVGDRVTITCRASHGISSALAWYQQRPGRVPQVLIFHASTLESGVPSRFSGSGSGTDFTLTISSLQPEDFATYYCQQFNSYPYTFGQGTKVEIK
Consider B2, for which the “Neutralization IC50 (RSV subtype A)” value was above 25 µg/mL.

B3: ADI-41308 (antibody, V domains shown)
VH: EVQLVESGPGLVKPSQTLSLTCAISGDSVSSNSAAWNWIRQSPSRGLERMGRTYYRSKWYDDYAVSVKSRIIINPDTSKNQFSLQLNSVTPEDTAVYYCARGISTFGGVIYALEIWGQGTMVTVSS
VL: SYVLTQPASVSGSPGQSITISCTGLTSDVGGYNFVSWYQQHPGKAPKLIIYDVSHRPSGVSNRFSGSESGNTASLTISGLQAEDEAHYYCSSYTRTSIVVFGGGTKLTVL
In the case of B3, the “Neutralization IC50 (RSV subtype A)” value was above 25 µg/mL.

B4: ADI-41314 (antibody, V domains shown)
VH: QVQLVQSGAEVKKPGSSVKVSCKAFGGIFSSYAISWVRQAPGQGLEWMGGIIPIFGTTKYAQKFQGRVTITADKSTSTVYMEVSSLRFEESAVYFCARAYCSGGTWYGGADYWGQGTLVTVSS
VL: QSVLTQPPSVSVSPGQTARITCSGDVLPKQYAYWYQQKPGQAPLLVMYKDTERPSGIPERFSGSSSVTAVTLTISGVQAEDEADYYCQSADSTQELFGGGTKLTVL
As to B4, the “Neutralization IC50 (RSV subtype A)” value is above 25 µg/mL.

B5: ADI-41304 (antibody, V domains shown)
VH: EVQLVESGPGLVKPSQTLSLTCTVSGGSIRSHDYYWSWIRQPPGKGLEWIGYSYYSGSTYYNPSLKSRVIISLDTSKNQFSLNLTSVTAADTAMYYCARDRPHTSSWIPGWFDPWGQGTLVTVSS
VL: SYELTQPPSASGTPGQRVTISCSGSSSNIGSNTVSWYQQFPGKAPKLLIYSNNERPSGGPDRFSGSKSGTSASLAIGGLQSEDEANYYCAAWDDSLYAVVFGGGTKLTVL
As for B5, the “Neutralization IC50 (RSV subtype A)” value is above 25 µg/mL.

B6: ADI-41309 (antibody, V domains shown)
VH: EVQLLESGPGLVKPSQTLSLTCTVSGGSISSGDYYWSWVRQPPGKGLEWIGNIYHSGSTYYKPSLKSRVSISLDTSKNQFSLKLSSVTAADTAIYYCARDGGENYVWGTFRFLDVWGQGTTVTVSS
VL: DIRLTQSPGTLSLSPGERATLSCRASQSVSSSYLAWYQQKPGQAPRLLIYGVSSRATGIPDRFSGSGSGTDFTLTINRLEPEDFALYHCQQYGSSPHTFGQGTKVEIK
For B6, the “Neutralization IC50 (RSV subtype A)” value was above 25 µg/mL.

B7: ADI-41310 (antibody, V domains shown)
VH: QVQLVQSGVEVKKPGESLKISCRGSGYSFYNYWIAWVRQKPGKGLEYMGTIYLDDSDTIYSPSFQGEVTISADKSINTAYLQWNSLKASDTANYYCARQMDFYFDVWGRGTLVTVSS
VL: SYELTQPPSVSVSPGQTARITCSGDPLPRESAYWYQQKPGQAPVVVIFNDIERPLGIPGRFSGSRSGATATLTINGAQAEDEADYYCQSADSRKTFVFGAGTKLTVL
As for B7, the “Neutralization IC50 (RSV subtype A)” value was above 25 µg/mL.

B8: ADI-41320 (antibody, V domains shown)
VH: QVQLVQSGVEVKKPGESLKISCRGFGYSAYNYWIAWVRQKPGKGLEYMGTIYLDDSDTIYSPSFQGEVTISADRSINTAYLQWNSLKASDTANYYCARQMDFYFDVWGRGTLVTVSS
VL: QSVLTQPPSVSVSPGQTARITCSGDPLPRESAYWYQQKPGQAPVVVIFNDIERPLGIPARFSGSRSGTTVTLTISGAQAEDEADYYCQSADSRKTFVFGPGTKLTVL
In the case of B8, the “Neutralization IC50 (RSV subtype A)” value was above 25 µg/mL.

B9: ADI-41313 (antibody, V domains shown)
VH: EVQLVESGAEVKKPGASVKVSCKASGYTFNNYDISWVRQAPGQGLEWMGWISTYNGNTNYAQKFQGRATMTTDTSTTTAYMELRSLRSDDSAIYYCARVYCGGDCHNPFFLYFDLWGRGTLVTVSS
VL: SYVLTQPLSVSVALGQTARITCGGNNIGSKSVHWYQQKPGQAPLLVIYRDNNRPSGIPERFSGSTSGNTATLTISRAQAGDEADYSCQVWDNSDWVFGGGTKLTVL
Turning to B9, the “Neutralization IC50 (RSV subtype A)” value was above 25 µg/mL.

B10: ADI-41303 (antibody, V domains shown)
VH: QVQLVQSGGGLVRPGGSLRVSCAASGFIFNNYALTWVRQAPGKGLEWVSAISGSGSSTYYADSVKGRFTISRENSNNRLYLQLSGLRAEDTAVYFCARVRGLVWFEGRIDPYPNVFDYWGQGTLVTVSS
VL: DIVLTQSPGTLSLSPGERATLSCRASQSVSNDYLAWYQQKPGQAPRLLIYDASSRAIGIPDRFSGSGSGTDFTLIISRLEPEDFAVYYCHHPGKFGQGTKVEIK
With B10, the “Neutralization IC50 (RSV subtype A)” value was above 25 µg/mL.

B11: ADI-41299 (antibody, V domains shown)
VH: EVQLVESGGGLVHPGRSLRLSCGASGFTFRSFAMHWVRQAPGKGLEWVAVISYDGSDEYYADSVKGRFTISRDNSRNTLFLQMNRLRPEDTAIYYCARAYCSTSNCPVLDYWGQGTLVTVSS
VL: QSVLIQPASVSGSPGQSITISCTGTSSDVGGYSLVSWYQQHPGKAPKLIIFEGNKRPAGVSDRFSGSKYGDTASLTISGLQAEDEADYYCCSYAGGHSVFGGGTKVTVL
Take B11: the “Neutralization IC50 (RSV subtype A)” value was above 25 µg/mL.

B12: ADI-41317 (antibody, V domains shown)
VH: EVQLVESGGGLVQPGGSLRLSCEASRFKFSTFWMAWVRQAPGKGLEWVANIKQDGSETYYLDSVKGRFTISRDNAKNSLFLQMKSLRAEDTAVYYCAGLWWGDLENWFDPWGQGTLVTVSS
VL: QSVLTQPPSVSGAPGQRVTISCTGSSSNLGTGFDVHWYRQLPGTAPQLLIYGSTNRPSGVPDRFSGSKYGTSASLAITGLQAEDEADYYCQSYDSNLRAYVFGTVTKVTVL
B12: the “Neutralization IC50 (RSV subtype A)” value was 4.66 µg/mL.

B13: ADI-41302 (antibody, V domains shown)
VH: QVQLVESGGGVVQPGRSLRLSCAASGFTFSSYAMQWVRQAPGKGLEWVAVMTNDGDDKYYADSVRGRFTISRDNSKNTLYLQMNNLRPEDTAVYYCARDLFEWWELLGYCYAMDVWGQGTTVTVSS
VL: QSVLTQPPSASGSPGQSVTISCTGTSSDVGAYNYVSWYQQHPGKAPKLIIYEVYKRPSGVPDRFFGSKSGNTASLTVSGLQAEDEADYYCSSYAGSNTLGVFGGGTKVTVL
As for B13, the “Neutralization IC50 (RSV subtype A)” value is 0.006 µg/mL.

B14: ADI-41311 (antibody, V domains shown)
VH: QVTLKQSGPALVKPTQTLTLTCTFSGFSLSTKRMGVSWIRQPPGKALEWLARIDWDDDKYYSTSLRTRLTISKDTSKNQVVLTMTDMDPVDTATYYCARIQPYTSGGYYSYYFDYWGQGTLVTVSS
VL: DIQVTQSPSSLSASIGDRVTITCRASQTIASYLNWYQQKPGKAPKLLIYIASSLQSGVPSRFSGSGSGTDFTLTISTLQPEDFATYYCQQSYGTPWTFGQGTKVEIK
With B14, the “Neutralization IC50 (RSV subtype A)” value is above 25 µg/mL.

B15: ADI-41316 (antibody, V domains shown)
VH: QVQLVQSGGGVVQPGRSLRLSCAASGFTFNNYGMHWVRQAPGKGLEWVAVLSFDGINKYYADSARGRFTISRDNSKNTLYLQMNSLRAEDTALYYCAKDRQEYSSGWTHDACDIWGQGTMVTVSS
VL: EIVMTQSPATLSVSPGERATLSCRASQNVNNNLAWYQQNPGQAPRLLIFGASTRATGIPARFSGSGSGTEFTLTISSLQSEDFAVYYCQQYNNWPRTFGQGTKLEIK
For the molecule B15, the “Neutralization IC50 (RSV subtype A)” value is above 25 µg/mL.

B16: ADI-41306 (antibody, V domains shown)
VH: QVQLVESGPRLVKPSQTLSLTCTVSGGSIYRGDYDWNWIRQPPGKGLEWIGYISYTGNTHYNSSLKSRLSISADTSGTHFSLKLSSVTAADTAIYYCARDVGYGGNAAHYYYYAMDVWGQGTTVTVSS
VL: ETTLTQSPATLSLSPGERATLSCRASQSVGSSLAWYQQKVGQAPRLLIYDASSRVTGIPARFSGSGSGTDFTLTISSLEPGDFAVYYCQQRSNSLTFGGGTKVEIK
As to B16, the “Neutralization IC50 (RSV subtype A)” value stood at 0.173 µg/mL.

B17: ADI-41307 (antibody, V domains shown)
VH: QVQLVESGGGLVKPGGSLRLSCAASGFPLSPYALNWVRQAPGKGLEWVSSITSSSAYIYYADSVKGRFTVSRDNPTNSLYLQMNSLRAEDTAVYYCARTIPQHYYDNNGDYYNYGMDVWGQGTTVTVSS
VL: DIVLTQSPATLSVSPGQRITLSCRASQTVRSNLAWYQQKPGQPPRLLIYGASTRATGVPARFTGSGSGTEFTLTITSLQSDDFAVYYCHQYNDRPLTFGPGTKVEIK
Take B17: the “Neutralization IC50 (RSV subtype A)” value was above 25 µg/mL.

B18: ADI-41322 (antibody, V domains shown)
VH: QVQLVQSGAEVKKPGSSVRVSCKASGGSFSSYATSWVRQAPGQGLEWMGGIIPMYDAVNYAQKFQGRVTITADESTTTAYMELSSLRSEDTAVYYCARSSGYTGTNFFDYWGQGTLVTVSS
VL: DIQMTQSPSSVSASVGDRVTITCRASQDISSWLAWYQQKPGKAPKLLIYTASSLQSGVPSRFSGSGSGTDFTLTISRLQPEDFATYYCQQANSFPRVTFGGGTKVEIK
For B18, the “Neutralization IC50 (RSV subtype A)” value is above 25 µg/mL.

B19: ADI-41312 (antibody, V domains shown)
VH: QVQLQESGPGLVKPSGTLSLTCAVSGGSISSSNWWNWVRQPPGKGLEWIGEIYHSGRTNYNPSLKSRVSISIDKFKSQFSLNLNSVTAADTAVYYCARDLPGTPYDIVPGYYPGLRRHDAFDIWGQGTMVTVSS
VL: not shown
For the molecule B19, the “Neutralization IC50 (RSV subtype A)” value was above 25 µg/mL.

B20: ADI-41305 (antibody, V domains shown)
VH: QVTLKESGPGLVKPSQTLSLTCTVSGGSISGGGYYWSWIRQLPGKGLQWIGCIYDSGTTYYNPSLKSLVTISIDTSKNQFSLKLSSVTAADTAVYYCARGGSLDDFWSATWYFALWGRGTLVTVSS
VL: EIVLTQSPGTLSLSPGERATLSCRASQSVSSNYLAWYQQKPGQAPRLLIYGASSRATGIPDRFSGSGSGTDFTLTISRLEPEDFAFYYCQQYGRSPYTFGPGTKLEIK
For B20, the “Neutralization IC50 (RSV subtype A)” value was above 25 µg/mL.

B21: ADI-41319 (antibody, V domains shown)
VH: QVQLQESGPGLVKPSQTLSLTCTVSGGSISSGDYYWSWIRQPPGKGLEWIGYIFYSGTTYYNPSLKSRVTISLDTSQNQFSLKLSSVTAADTAVYYCARDGDEVDYVWGTRRYLDSWGRGTLVTVSS
VL: EIVLTQSPGTLSLSPGERATLSCRASQSVSSRYLAWYQQKPGQAPRLLIHGASSRATGIPDRFSGSGSGTDFTLTISRLEPEDFAVYYCLQYGSLPKTFGQGTKVEIK
Take B21: the “Neutralization IC50 (RSV subtype A)” value was above 25 µg/mL.
